Substitutions are numbered along the chain they refer to. Names and notes keep the numbering of the source. One block for each molecule: values may come before it.
Experiments:
[1] = biological target: T1, hDASPO (hDASPO_341), human D-aspartate oxidase (Homo sapiens, UniProt Q99489); assay: quenching of apoprotein tryptophan fluorescence (~[…] nm), titration; format: binding
T1 construct: gene DDO; full-length canonical isoform, 341 residues; His-tagged (pET11-His-hDASPO), E. coli BL21(DE3) LOBSTR, HiTrap chelating
T1 sequence (Q99489 1-341): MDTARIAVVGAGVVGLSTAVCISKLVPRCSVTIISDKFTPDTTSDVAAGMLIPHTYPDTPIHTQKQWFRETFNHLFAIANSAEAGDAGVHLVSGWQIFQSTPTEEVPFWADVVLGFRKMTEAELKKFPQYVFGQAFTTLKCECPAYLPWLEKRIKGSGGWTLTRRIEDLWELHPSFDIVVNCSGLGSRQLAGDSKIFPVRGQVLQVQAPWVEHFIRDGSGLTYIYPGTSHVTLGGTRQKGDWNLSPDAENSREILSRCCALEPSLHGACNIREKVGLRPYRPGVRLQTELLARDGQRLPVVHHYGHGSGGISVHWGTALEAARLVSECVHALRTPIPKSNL

[2] = biological target: T2, hDASPO-RED (recombinant hDASPO labelled with the RED-NHS dye) (human, UniProt Q99489 1-341, RED-NHS fluorescent dye on primary amines (lysine residues), degree of labeling ~0.7); assay: MST; Monolith NT.115; 10 nM hDASPO-RED with 3 nM to 100 μM label-free pLG72 variant; settings: both partners purified
T2 construct: human D-aspartate oxidase, canonical isoform 1 (hDASPO_341, 341 amino acids), UniProt Q99489; encoded by the pET11-His-hDASPO plasmid; Same protein as m1, with the dye; also called labeled hDASPO; source: E. coli BL21(DE3) LOBSTR, purified (HiTrap chelating column), labelled with the RED-NHS labeling kit second generation
T2 sequence (looked up): T1 sequence (Q99489 1-341)

Kd [1]: 0.016 µM
Molecule: Cc1cc2nc3c(=O)[nH]c(=O)nc-3n(C[C@H](O)[C@H](O)[C@H](O)COP(=O)(O)OP(=O)(O)OC[C@H]3O[C@@H](n4cnc5c(N)ncnc54)[C@H](O)[C@@H]3O)c2cc1C [FAD]

Kd [2]: 6.8 ± 0.6 µM
B1: pLG72 R30 variant (wild type), recombinant (natural protein, UniProt P59103 1-153, looked up)
chain: MLEKLMGADSLQLFRSRYTLGKIYFIGFQRSILLSKSENSLNSIAKETEEGRETVTRKEGWKRRHEDGYLEMAQRHLQRSLCPWVSYLPQPYAELEEVSSHVGKVFMARNYEFLAYEASKDRRQPLERMWTCNYNQQKDQSCNHKEITSTKAE
notes: primate-specific protein pLG72 (18 kDa), wild type with Arg at position 30; kept in 0.06% N-lauroyl sarcosine; also called R30 pLG72; wild-type (R30) pLG72; source: E. coli BL21-Codon plus (DE3)-RIL, recovered from insoluble inclusion bodies, purified

Kd [2]: 3.8 ± 0.4 µM
B2: pLG72 R30K variant (Arg30Lys), recombinant (natural protein, UniProt P59103 1-153, looked up)
chain: B1 chain with R30K
notes: primate-specific protein pLG72 (18 kDa), Arg30Lys variant related to schizophrenia susceptibility; kept in 0.06% N-lauroyl sarcosine; also called R30K pLG72; source: E. coli BL21-Codon plus (DE3)-RIL, recovered from insoluble inclusion bodies, purified

Reference: PMC10588558, “On the regulation of human D‐aspartate oxidase” (Protein Science : A Publication of the Protein Society, 2023)
